Measurements: US20230287082A1 (published 2023)

Target: T1, yeast surface displayed ΔB7-H6 (wild-type) (human, UniProt Q68D85 25-145)
T1 construct: also called wild-type ΔB7-H6 on yeast; not shown: Aga2p fusion partner of the pYD-derived vector
T1 sequence: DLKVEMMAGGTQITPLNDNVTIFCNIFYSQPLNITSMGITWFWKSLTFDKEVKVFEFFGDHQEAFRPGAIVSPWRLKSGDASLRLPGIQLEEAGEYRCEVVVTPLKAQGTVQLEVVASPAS
Assay: yeast surface display, flow cytometry

- binding result: binds
B1: human NKp30 (receptor, UniProt O14931 19-135, looked up)
chain: LWVSQPPEIRTLEGSSAFLPCSFNASQGRLAIGSVTWFRDEVVPGKEVRNGTPEFRGRLAPLASSRFLHDHQAELHIRDVRGHDASIYVCRVEVLGLGVGTGNGTRLVVEKEHPQLG
notes: Soluble analyte in BLI; also called recombinant NKp30; his-tagged NKp30 (Abcam)
